Values quoted from earlier work as cited in PMC9558312.

Tests used:
Assay in all cases: NMR
Asp59 = Asp59 (UniProt position 80, VCCSTDKCN--)
Glu17 = Glu17 (UniProt position 38, YKTCPEGKNLC)
Asp42 = Asp42 (UniProt position 63, KRGCADNCPKN)
His4 = His4 (UniProt position 25, YTLKCHNTQLP)
Asp66 = Asp66 (UniProt position 84, RWWCNDGRTPG)
Asp119 = Asp119 (UniProt position 137, RCKGTDVQAWI)
Glu35 = Glu35 (UniProt position 53, CAAKFESNFNT)
Asp87 = Asp87 (UniProt position 105, ALLSSDITASV)
Asp18 = Asp18 (UniProt position 36, KRHGLDNYRGY)
Glu7 = Glu7 (UniProt position 25, VFGRCELAAAM)
Asp52 = Asp52 (UniProt position 70, TDGSTDYGILQ)
Asp101 = Asp101 (UniProt position 119, KKIVSDGNGMN)
Asp48 = Asp48 (UniProt position 66, TNRNTDGSTDY)

| Substance | pKa (Asp59) | pKa (Glu17) | pKa (Asp42) | pKa (His4) | pKa (Asp66) | pKa (Asp119) | pKa (Glu35) | pKa (Asp87) | pKa (Asp18) | pKa (Glu7) | pKa (Asp52) | pKa (Asp101) | pKa (Asp48) |
| --- | --- | --- | --- | --- | --- | --- | --- | --- | --- | --- | --- | --- | --- |
| Cardiotoxin V (cytotoxin 5, CTX A5) (Naja naja atra (Naja atra, Taiwan cobra)) | <2 | 4 | 3.2 | 5.5 |  |  |  |  |  |  |  |  |  |
| Hen egg white lysozyme (HEWL, lysozyme C) (Gallus gallus) |  |  |  |  | 1.2 | 3.5 | 6.1 | 2.2 | 2.8 | 2.6 | 3.6 | 4.5 | 1.4 |
